Laboratory results: article PMC3691600, “Conversion of fatty aldehydes into alk (a/e)nes by in vitro reconstituted cyanobacterial aldehyde-deformylating oxygenase with the cognate electron transfer system” (Biotechnology for Biofuels, 2013)

Molecular target: Aldehyde-deformylating oxygenase (Synpcc7942_1593) from Synechococcus elongatus PCC7942 (Synechococcus elongatus PCC7942) (UniProt Q54764)
Sequence (Q54764 whole entry): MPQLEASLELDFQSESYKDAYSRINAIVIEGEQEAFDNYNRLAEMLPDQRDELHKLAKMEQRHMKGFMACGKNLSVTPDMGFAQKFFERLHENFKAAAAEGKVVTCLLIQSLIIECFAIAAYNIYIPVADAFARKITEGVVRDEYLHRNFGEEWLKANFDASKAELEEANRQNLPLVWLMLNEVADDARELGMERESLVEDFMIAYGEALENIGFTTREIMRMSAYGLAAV

Chain of Spinach ferredoxin (P00221 51-147): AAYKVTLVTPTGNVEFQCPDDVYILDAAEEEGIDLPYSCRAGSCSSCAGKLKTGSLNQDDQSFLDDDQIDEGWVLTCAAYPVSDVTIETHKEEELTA

Yield of n-pentadecane by ADO 1593 with Fd (spinach) + FNR (PCC7942) + NADPH: 13.9 µM
Yield of n-pentadecane by ADO 1593 with Fd (spinach) + FNR (spinach) + NADPH: 15.7 µM
Substance: Spinach ferredoxin (from UniProt P00221 51-147) (natural protein)
